Laboratory results taken from paper PMC6299097.

Key:
Experiment in all cases: crystal structure; L1 pentamers (Cys175 to Ser, limited trypsin digestion) at ~5 mg/mL, vapour diffusion at 20 °C
[1] = target: H58-33BC-52HI chimeric L1 pentamer (Human papillomavirus type 58)
[2] = target: H58-33BC chimeric L1 pentamer (Human papillomavirus type 58)
[3] = target: HPV52 L1 pentamer (Human papillomavirus type 52)
[4] = target: HPV33 L1 pentamer (Human papillomavirus type 33)

## H58-33BC-52HI chimeric L1 pentamer (complex)
[1]
  stoichiometry N: 5

## H58-33BC chimeric L1 pentamer (complex)
[2]
  stoichiometry N: 5

## HPV52 L1 pentamer (complex)
[3]
  stoichiometry N: 5

## HPV33 L1 pentamer (complex)
[4]
  stoichiometry N: 5
